Reference: paper PMC2932712, “Formation of Mobile Chromatin-Associated Nuclear Foci Containing HIV-1 Vpr and VPRBP Is Critical for the Induction of G2 Cell Cycle Arrest” (PLoS Pathogens, 2010)

Key:
Assay in all cases: FRET or BRET; BRET saturation in live HEK293T cells; fixed Rluc donor plasmid (10 ng), increasing eYFP acceptor plasmid (0 to 500 ng); coelenterazine H; BRET50 as relative affinity
Settings in all cases: partners not purified
Rluc-Vpr (R80A) = target: T1, Rluc-Vpr (R80A) (HIV-1, UniProt P05928 1-96, R80A)
T1 construct: BRET donor; also called the R80A mutant; pCDNA3.1-Rluc-Vpr (R80A); source: HEK293T, transfected, in live cells; not shown: renilla luciferase (Rluc), N-terminal, kept
T1 sequence: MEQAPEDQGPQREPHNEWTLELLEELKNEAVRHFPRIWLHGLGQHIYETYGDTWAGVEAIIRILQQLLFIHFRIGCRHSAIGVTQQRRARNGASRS

Rluc-Vpr (Q65R) = target: T2, Rluc-Vpr (Q65R) (HIV-1, UniProt P05928 1-96, Q65R)
T2 construct: BRET donor; also called the Q65R mutant; pCDNA3.1-Rluc-Vpr (Q65R); source: HEK293T, transfected, in live cells; not shown: renilla luciferase (Rluc), N-terminal, kept
T2 sequence: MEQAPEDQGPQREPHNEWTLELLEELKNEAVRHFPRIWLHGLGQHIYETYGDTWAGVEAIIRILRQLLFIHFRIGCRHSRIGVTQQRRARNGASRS

Rluc-Vpr (WT) = target: T3, Rluc-Vpr (WT) (HIV-1, UniProt P05928 1-96)
T3 construct: BRET donor; also called pCDNA3.1-Rluc-Vpr (WT); source: HEK293T, transfected, in live cells; not shown: renilla luciferase (Rluc), N-terminal, kept
T3 sequence: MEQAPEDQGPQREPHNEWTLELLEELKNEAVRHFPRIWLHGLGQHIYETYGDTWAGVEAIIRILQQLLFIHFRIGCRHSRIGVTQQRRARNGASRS

B1: eYFP-Vpr (WT) (natural protein)
chain: MEQAPEDQGPQREPHNEWTLELLEELKNEAVRHFPRIWLHGLGQHIYETYGDTWAGVEAIIRILQQLLFIHFRIGCRHSRIGVTQQRRARNGASRS
notes: BRET acceptor; also called wild type eYFP-Vpr; pCDNA3.1-eYFP-Vpr(WT); source: HEK293T, transfected, in live cells; not shown: eYFP, N-terminal, kept
BRET50 (Rluc-Vpr (R80A)): 0.326 fluorescence/luminescence | BRET50 (Rluc-Vpr (Q65R)): 0.791 fluorescence/luminescence | BRET50 (Rluc-Vpr (WT)): 0.397 fluorescence/luminescence
